Experimental data taken from the supplement of paper PMC11246515.
± gives the standard deviation of the averaged measurements.

Test: total protein half-life in vivo (active degradation + dilution); higher = more stable protein
[1] = E. coli NCM3722 delta-clpP delta-lon delta-hslV, growth: N-lim chemostat, doubling time 6 h
[2] = E. coli NCM3722 delta-clpP, growth: N-lim chemostat, doubling time 6 h
[3] = E. coli NCM3722 delta-hslV, growth: N-lim chemostat, doubling time 6 h
[4] = E. coli NCM3722 delta-lon, growth: N-lim chemostat, doubling time 6 h
[5] = E. coli NCM3722 delta-smpB, growth: N-lim chemostat, doubling time 6 h
[6] = wild type E. coli NCM3722, growth: C-lim chemostat, doubling time 3 h
[7] = wild type E. coli NCM3722, growth: C-lim chemostat, doubling time 6 h
[8] = wild type E. coli NCM3722, growth: N-lim chemostat, doubling time 6 h
[9] = wild type E. coli NCM3722, growth: N-lim chemostat, doubling time 12 h
[10] = wild type E. coli NCM3722, growth: C-lim chemostat, doubling time 12 h
[11] = wild type E. coli NCM3722, growth: P-lim chemostat, doubling time 6 h
[12] = wild type E. coli NCM3722, growth: P-lim chemostat, doubling time 12 h

Sequence	total protein half-life in vivo [1] [h]	total protein half-life in vivo [2] [h]	total protein half-life in vivo [3] [h]	total protein half-life in vivo [4] [h]	total protein half-life in vivo [5] [h]	total protein half-life in vivo [6] [h]	total protein half-life in vivo [7] [h]	total protein half-life in vivo [8] [h]	total protein half-life in vivo [9] [h]	total protein half-life in vivo [10] [h]	total protein half-life in vivo [11] [h]	total protein half-life in vivo [12] [h]
MSDTTELVDLAVIFPDLEIELKYACADNITGKAIYQQARCLLHKDAITALAKSISIAQLSGLQLVIYDAYRPQQAQAMLWQACPDPQYVVDVTVGSNHSRGTAIDLTLRDEHGNILDMGAGFDEMHERSHAYHPSVPPAAQRNRLLLNAIMTGGGFVGISSEWWHFELPQAASYPLLADQFSCFISPGTQHVS	5.51 ± 0.24	1.76	2.69 ± 0.14	3.64 ± 0.33	1.89 ± 0.17	0.884	1.97 ± 0.47	2.72 ± 0.22	4.71 ± 0.84			
MSDVAETLDPLRLPLQGERLIEASAGTGKTFTIAALYLRLLLGLGGSAAFPRPLTVEELLVVTFTEAATAELRGRIRSNIHELRIACLRETTDNPLYERLLEEIDDKAQAAQWLLLAERQMDEAAVFTIHGFCQRMLNLNAFESGMLFEQQLIEDESLLRYQACADFWRRHCYPLPREIAQVVFETWKGPQALLRDINRYLQGEAPVIKAPPPDDETLASRHAQIVARIDTVKQQWRDAVGELDALIESSGIDRRKFNRSNQAKWIDKISAWAEEETNSYQLPESLEKFSQRFLEDRTKAGGETPRHPLFEAIDQLLAEPLSIRDLVITRALAEIRETVAREKRRRGELGFDDMLSRLDSALRSESGEVLAAAIRTRFPVAMIDEFQDTDPQQYRIFRRIWHHQPETALLLIGDPKQAIYAFRGADIFTYMKARSEVHAHYTLDTNWRSAPGMVNSVNKLFSQTDDAFMFREIPFIPVKSAGKNQALRFVFKGETQPAMKMWLMEGESCGVGDYQSTMAQVCAAQIRDWLQAGQRGEALLMNGDDARPVRASDISVLVRSRQEAAQVRDALTLLEIPSVYLSNRDSVFETLEAQEMLWLLQAVMTPERENTLRSALATSMMGLNALDIETLNNDEHAWDVVVEEFDGYRQIWRKRGVMPMLRALMSARNIAENLLATAGGERRLTDILHISELLQEAGTQLESEHALVRWLSQHILEPDSNASSQQMRLESDKHLVQIVTIHKSKGLEYPLVWLPFITNFRVQEQAFYHDRHSFEAVLDLNAAPESVDLAEAERLAEDLRLLYVALTRSVWHCSLGVAPLVRRRGDKKGDTDVHQSALGRLLQKGEPQDAAGLRTCIEALCDDDIAWQTAQTGDNQPWQVNDVSTAELNAKTLQRLPGDNWRVTSYSGLQQRGHGIAQDLMPRLDVDAAGVASVVEEPTLTPHQFPRGASPGTFLHSLFEDLDFTQPVDPNWVREKLELGGFESQWEPVLTEWITAVLQAPLNETGVSLSQLSARNKQVEMEFYLPISEPLIASQLDTLIRQFDPLSAGCPPLEFMQVRGMLKGFIDLVFRHEGRYYLLDYKSNWLGEDSSAYTQQAMAAAMQAHRYDLQYQLYTLALHRYLRHRIADYDYEHHFGGVIYLFLRGVDKEHPQQGIYTTRPNAGLIALMDEMFAGMTLEEA	5.03 ± 0.26	4.28 ± 0.35	3.64 ± 0.075	3.84 ± 0.3	3.72 ± 0.33	3.13 ± 0.34	5.03 ± 0.71	3.87 ± 0.3	5.71 ± 0.92	13.2 ± 3.9	6.9 ± 0.91	10.4 ± 0.56
MSDVLRPYRDLFPQIGQRVMIDDSSVVIGDVRLADDVGIWPLVVIRGDVHYVQIGARTNIQDGSMLHVTHKSSYNPDGNPLTIGEDVTVGHKVMLHGCTIGNRVLVGMGSILLDGAIVEDDVMIGAGSLVPQNKRLESGYLYLGSPVKQIRPLSDEEKAGLRYSANNYVKWKDEYLDQGNQTQP [P0A9W9]		5.73 ± 1.7	5.34 ± 1.1	5.32 ± 0.6	4.72 ± 0.17	3.04 ± 0.14		5.36 ± 0.53	8.69 ± 0.58	10 ± 2	6.25 ± 0.13	14.3 ± 1.3
MSEAEARPTNFIRQIIDEDLASGKHTTVHTRFPPEPNGYLHIGHAKSICLNFGIAQDYKGQCNLRFDDTNPVKEDIEYVESIKNDVEWLGFHWSGNVRYSSDYFDQLHAYAIELINKGLAYVDELTPEQIREYRGTLTQPGKNSPYRDRSVEENLALFEKMRAGGFEEGKACLRAKIDMASPFIVMRDPVLYRIKFAEHHQTGNKWCIYPMYDFTHCISDALEGITHSLCTLEFQDNRRLYDWVLDNITIPVHPRQYEFSRLNLEYTVMSKRKLNLLVTDKHVEGWDDPRMPTISGLRRRGYTAASIREFCKRIGVTKQDNTIEMASLESCIREDLNENAPRAMAVIDPVKLVIENYQGEGEMVTMPNHPNKPEMGSRQVPFSGEIWIDRADFREEANKQYKRLVLGKEVRLRNAYVIKAERVEKDAEGNITTIFCTYDADTLSKDPADGRKVKGVIHWVSAAHALPVEIRLYDRLFSVPNPGAADDFLSVINPESLVIKQGFAEPSLKDAVAGKAFQFEREGYFCLDSRHSTAEKPVFNRTVGLRDTWAKVGE	5.89 ± 0.95	5.11 ± 0.2	4.97 ± 0.059	5.31 ± 0.48	4.92 ± 0.16	3.11 ± 0.31	6.39 ± 0.22	5.25 ± 0.2	9.02 ± 0.47	11.47 ± 0.028	5.959 ± 0.047	12.1 ± 0.73
MSEEKLGQHYLAALNEAFPGVVLDHAWQTKDQLTVTVKVNYLPEVVEFLYYKQGGWLSVLFGNDERKLNGHYAVYYVLSMEKGTKCWITVRVEVDANKPEYPSVTPRVPAAVWGEREVRDMYGLIPVGLPDERRLVLPDDWPDELYPLRKDSMDYRQRPAPTTDAETYEFINELGDKKNNVVPIGPLHVTSDEPGHFRLFVDGENIIDADYRLFYVHRGMEKLAETRMGYNEVTFLSDRVCGICGFAHSTAYTTSVENAMGIQVPERAQMIRAILLEVERLHSHLLNLGLACHFTGFDSGFMQFFRVRETSMKMAEILTGARKTYGLNLIGGIRRDLLKDDMIQTRQLAQQMRREVQELVDVLLSTPNMEQRTVGIGRLDPEIARDFSNVGPMVRASGHARDTRADHPFVGYGLLPMEVHSEQGCDVISRLKVRINEVYTALNMIDYGLDNLPGGPLMVEGFTYIPHRFALGFAEAPRGDDIHWSMTGDNQKLYRWRCRAATYANWPTLRYMLRGNTVSDAPLIIGSLDPCYSCTDRMTVVDVRKKKSKVVPYKELERYSIERKNSPLK	4.79		2.89	3.68	2.74 ± 0.029	2.46	5.18	3.86 ± 1.7		11.2 ± 0.78	5.02	8.26 ± 0.97
MSEKSIVQEARDIQLAMELITLGARLQMLESETQLSRGRLIKLYKELRGSPPPKGMLPFSTDWFMTWEQNVHASMFCNAWQFLLKTGLCNGVDAVIKAYRLYLEQCPQAEEGPLLALTRAWTLVRFVESGLLQLSSCNCCGGNFITHAHQPVGSFACSLCQPPSRAVKRRKLSQNPADIIPQLLDEQRVQAV [P0ABY7]	> 8	4.44				0.252	0.52					
MSEKVVFSQLSRKFIDENDATPAEAQQVVYYSLAIGHHLGVIDCLEAALTCPWDEYLAWIATLEAGSEARRKMEGVPKYGEIVIDINHVPMLANAFDKARAAQTSQQQEWSTMLLSMLHDIHQENAIYLMVRRLRD [P0AEV7]	3.73	2.63		2.37 ± 0.25	1.7	2.34	3.73	2.24 ± 0.23	2.34	6.99	3.21	6.49 ± 0.1
